Test results from PMC11794977, “Inhibitory Potential and Binding Thermodynamics of Scyllatoxin‐Based BH3 Domain Mimetics Targeting Repressor BCL2 Proteins” (Journal of Molecular Recognition, 2025).

Experiments:
[1] = target: T1, Bcl‐2‐ΔTM (recombinant His‐tagged Bcl‐2 without its transmembrane domain); assay: fluorescence polarisation; competition: 100 nM Bcl‐2‐ΔTM and 25 nM ^FluBax‐BH3^ΔB pre‐incubated 1 h, then acetylated peptide (100 μM to 2.3 pM) added for 1 h; binding buffer (50 mM Tris, 100 mM NaCl, pH 8.0); ambient temperature; triplicate; settings: both partners purified
T1 construct: also called Bcl‐2 (proper); Bcl‐2‐ΔTM proteins

[2] = target: T1, Bcl‐2‐ΔTM (recombinant His‐tagged Bcl‐2 …); assay: ITC; 200 μM acetylated peptide injected into 20 μM Bcl‐2‐ΔTM in the cell; binding buffer (50 mM Tris, 100 mM NaCl, pH 8.0); 25°C; one‐site model; Kd as reciprocal of Ka; triplicate; settings: both partners purified

B1: ^AcBax‐BH3^ΔB (peptide)
chain: STKKLSEXLKRIGDELDSNM
HELM: PEPTIDE1{[ac].S.T.K.K.L.S.E.[Abu].L.K.R.I.G.D.E.L.D.S.N.M.[am]}$$$$V2.0
SMILES: CC[C@H](NC(=O)[C@H](CCC(=O)O)NC(=O)[C@H](CO)NC(=O)[C@H](CC(C)C)NC(=O)[C@H](CCCCN)NC(=O)[C@H](CCCCN)NC(=O)[C@@H](NC(=O)[C@H](CO)NC(C)=O)[C@@H](C)O)C(=O)N[C@@H](CC(C)C)C(=O)N[C@@H](CCCCN)C(=O)N[C@@H](CCCNC(=N)N)C(=O)N[C@H](C(=O)NCC(=O)N[C@@H](CC(=O)O)C(=O)N[C@@H](CCC(=O)O)C(=O)N[C@@H](CC(C)C)C(=O)N[C@@H](CC(=O)O)C(=O)N[C@@H](CO)C(=O)N[C@@H](CC(N)=O)C(=O)N[C@@H](CCSC)C(N)=O)[C@@H](C)CC
IC50 [1]: 141 nM
Kd [2]: 191 nM
dH [2]: -5.43 kcal/mol
stoichiometry N [2]: 0.93
